Measurements taken from patent US20190389973A1 (Y BIOLOGICS, published 2019).

Assays:
TNF-α = target: T1, TNF-α (UniProt P01375 77-233); test: ELISA on coated TNF-α
T1 construct: Soluble antigen used as analyte in the OCTET assay and coated in ELISA; also called TNF-a
Method: (§1) The affinity of Fv2mabs consisting of the tandem Fv combinations of anti-TNF-α and anti-VEGFA; and anti-TNF-α and anti-IL17A was measured by using ELISA method. Antigens such as TNF-α, VEGFA, and IL-17A, were fixed on an immune-plate at a concentration of 100 ng/well (96 well) by using pH 7.4 PBS as a coating buffer through a reaction at 4° C. overnight. Each well was once washed with PBST 200 μl, and then a surface blocking reaction was performed at room temperature with 5% skim milk for one to two hours. Subsequently, after washing each well twice with PBST 200 μl, a serial dilution was performed with an appropriate bispecific Fv2mab to measure and a control parental antibody from an appropriate concentration in an interval of ½ to ⅕ for a reaction at room temperature for one to two hours. Then, each well was washed three times with PBST 200 μl to remove unbound antibodies, and a dilution was performed with horseradish peroxidase (HRP)-conjugated anti-human-Fc-HRP (Millipore, USA) at a ratio of 1:3000 for a reaction at room temperature for one hour. Then, each well was washed three times with PBST 200 μl to remove unbound detection antibodies. A color reaction of HRP was induced by using TMB solution (GEhealthcare, USA) in a volume of […], and the reaction was terminated by using a stop solution (2.5 M H2SO4, 100 μl/well).

VEGFA = test: ELISA on coated VEGFA
Chain of VEGFA (P15692 whole entry): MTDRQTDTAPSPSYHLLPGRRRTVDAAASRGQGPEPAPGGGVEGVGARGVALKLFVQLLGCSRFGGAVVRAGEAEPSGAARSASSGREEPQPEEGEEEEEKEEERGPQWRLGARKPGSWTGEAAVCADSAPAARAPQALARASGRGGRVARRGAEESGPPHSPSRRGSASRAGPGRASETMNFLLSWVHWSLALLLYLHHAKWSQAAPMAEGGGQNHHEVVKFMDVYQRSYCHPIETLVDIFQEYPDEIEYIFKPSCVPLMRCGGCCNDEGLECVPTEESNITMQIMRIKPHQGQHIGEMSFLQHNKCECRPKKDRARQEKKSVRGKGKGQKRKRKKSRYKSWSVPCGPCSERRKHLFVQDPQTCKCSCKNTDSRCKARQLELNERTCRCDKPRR
Method: as §1

T1 sequence (P01375 77-233 limits assumed): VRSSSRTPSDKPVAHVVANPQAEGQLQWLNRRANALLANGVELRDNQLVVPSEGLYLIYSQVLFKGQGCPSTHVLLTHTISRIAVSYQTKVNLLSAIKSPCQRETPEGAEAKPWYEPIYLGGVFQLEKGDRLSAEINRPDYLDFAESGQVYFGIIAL

binding result (TNF-α): binds | EC50 (read off the curve) (VEGFA): ~0.3 nM
B1: anti-VEGFA AB (antibody, V domains shown)
VH: QVTLKESGPTMVKPTQTLTLTCTFSGFSLSTSGVAVGWIRQPPGQALEWLALIYWDNDKRYSPSLKNRLTVAKDTSKSQVVLTMTNMDPMDTATYYCAHGDGWLFDFWGQGTLVTVSS
VL: QPVLTQPPSVSGAPGQRVTISCTGSNSNIGAGHDVHWYQQLPGAAPKVVIYGNTNRASGVPERFSGSKSATSASLAITGLQAEDEADYYCQSYDNSLSGYVFGTGTKVTVL
notes: The sheet calls it 'parantal antibody'; also called anti-VEGFA antibody; F6 (in-house)
